# Publication PMC12319226 (Frontiers in Bioinformatics, 2025)
# Substitutions are numbered along the chain they refer to.
# B1: chimeric antibody h12C1 (antibody, V domains shown)
# VH: QVQLQESGPELVKPGASVKISCKASGYSFSDYNMSWVKQSNGKSLEWIGIIDPKYGTINYNQKFKGKATLTVDQASSTAYMQLNSLTSEDSAVYYCVRDYYGSSYFDYWGQGTTLTVSS
# VL: DIVLTQSPSSIYASLGERVTLTCKASQDIHNYLNWFQQKPGKSPKTLIYRANRLVDGVPSRFSGGGSGQDYSLTISSLEFEDIGIYYCLQYDEFPPTFGGGTRLEIK
# notes: also called humanized 12C1; source: Expi293, purified (MabSelect SuRe, SEC); copies: 2 + 2
# B2: mAb 1E6 (human) (antibody, V domains shown)
# VH: EVQLVQSGAEVKKPGSSVKVSCKASGGTVIDYPITWVRQAPGQGLEWVGGFVPLFRTSNYGQKFQGRVTITADKSTSTASMELNSLTSEDTAIYYCARGDTAMGPFDYWGQGTLVTVSS
# VL: SYVLTQPPSLSVAPGKTATLTCGGNNIAGKTVHWYQQRPGQAPVLVISYDSDRPSGIPERFSGSNSANTATLTISRVEAGDEADYYCQVWDRNSDHWVFGGGTKLTVL
# notes: source: Expi293, purified (MabSelect SuRe, SEC); copies: 2 + 2
# How the values were obtained:
# Assay in all cases: BLI
# Conditions in all cases: both partners purified
# [1] = target: T1, factor H binding protein variant 1.1 (Neisseria meningitidis serogroup B …, UniProt Q9JXV4)
# T1 construct: also called fHbp v1.1; v1.1 Control (0001)
# fHbp m001015 = target: T2, fHbp m001015 (Neisseria meningitidis fHbp v3.28, …, point mutant)
# T2 chain: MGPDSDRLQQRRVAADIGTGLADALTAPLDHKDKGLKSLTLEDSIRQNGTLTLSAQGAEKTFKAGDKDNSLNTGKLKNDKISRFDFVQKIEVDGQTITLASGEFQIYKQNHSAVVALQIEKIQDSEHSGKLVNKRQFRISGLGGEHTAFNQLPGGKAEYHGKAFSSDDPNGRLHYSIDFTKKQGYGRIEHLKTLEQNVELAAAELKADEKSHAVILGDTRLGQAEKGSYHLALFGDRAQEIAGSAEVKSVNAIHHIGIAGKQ
# fHbp m001767 = target: T3, fHbp m001767 (Neisseria meningitidis fHbp v3.28, …, point mutant)
# T3 chain: T2 chain with L221Y, S249T, N251E, A252S
# fHbp m001822 = target: T4, fHbp m001822 (Neisseria meningitidis, engineered fHbp …, point mutant)
# T4 chain: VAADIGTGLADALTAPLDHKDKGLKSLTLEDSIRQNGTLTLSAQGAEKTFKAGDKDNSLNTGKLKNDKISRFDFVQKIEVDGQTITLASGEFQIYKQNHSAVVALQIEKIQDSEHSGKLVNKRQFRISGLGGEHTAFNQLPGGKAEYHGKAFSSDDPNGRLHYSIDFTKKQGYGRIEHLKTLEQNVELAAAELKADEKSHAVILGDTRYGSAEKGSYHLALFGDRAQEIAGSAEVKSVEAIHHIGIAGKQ
# fHbp m001832 = target: T5, fHbp m001832 (Neisseria meningitidis fHbp v3.28, …, chimera)
# T5 chain: T2 chain with L221Y, Q223S, V250D, A252G
# fHbp m001848 = target: T6, fHbp m001848 (Neisseria meningitidis, engineered fHbp …, chimera)
# T6 chain: T4 chain with S237T
# fHbp m001213 = target: T7, fHbp m001213 (Neisseria meningitidis fHbp v3.28-based …, point mutant)
# T7 chain: T2 chain with Q223G, S249T, V250D
# fHbp m001529 = target: T8, fHbp m001529 (Neisseria meningitidis, fHbp …, point mutant)
# T8 chain: T2 chain with G222N, S249T, N251V, A252G
# [2] = target: T9, factor H binding protein variant 3.28 (Neisseria meningitidis, fHbp variant …)
# T9 construct: also called fHbp v3.28; v3.28 Control (0002)
# T9 chain: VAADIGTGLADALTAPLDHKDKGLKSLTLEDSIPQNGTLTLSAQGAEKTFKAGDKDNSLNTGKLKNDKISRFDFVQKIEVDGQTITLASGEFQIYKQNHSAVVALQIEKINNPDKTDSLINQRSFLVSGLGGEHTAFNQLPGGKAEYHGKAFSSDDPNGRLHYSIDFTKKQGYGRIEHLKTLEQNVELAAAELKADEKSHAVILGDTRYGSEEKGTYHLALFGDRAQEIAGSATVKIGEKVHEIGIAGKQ
binder,measurement,setting,value
B1,Kd,[1],391 pM
same,koff,[1],0.000273 s⁻¹
same,kon,[1],697400 ± 1920 M⁻¹ s⁻¹
same,Kd,fHbp m001015,187000 pM
same,koff,fHbp m001015,0.02355 ± 0.000153 s⁻¹
same,kon,fHbp m001015,126000 ± 5980 M⁻¹ s⁻¹
B2,Kd,fHbp m001767,131 pM
same,koff,fHbp m001767,4.68e-05 s⁻¹
same,kon,fHbp m001767,358200 ± 2140 M⁻¹ s⁻¹
same,Kd,fHbp m001822,455 pM
same,koff,fHbp m001822,0.00017 s⁻¹
same,kon,fHbp m001822,372900 ± 2610 M⁻¹ s⁻¹
same,Kd,fHbp m001832,435 pM
same,koff,fHbp m001832,0.00016 s⁻¹
same,kon,fHbp m001832,367800 ± 1240 M⁻¹ s⁻¹
same,Kd,fHbp m001848,344 pM
same,koff,fHbp m001848,0.000155 s⁻¹
same,kon,fHbp m001848,451100 ± 2150 M⁻¹ s⁻¹
same,Kd,fHbp m001015,1120 pM
same,koff,fHbp m001015,0.000418 s⁻¹
same,kon,fHbp m001015,375100 ± 1120 M⁻¹ s⁻¹
same,Kd,fHbp m001213,594 pM
same,koff,fHbp m001213,0.000262 s⁻¹
same,kon,fHbp m001213,440700 ± 1810 M⁻¹ s⁻¹
same,Kd,fHbp m001529,338 pM
same,koff,fHbp m001529,0.000156 s⁻¹
same,kon,fHbp m001529,460900 ± 3880 M⁻¹ s⁻¹
same,Kd,[2],770 pM
same,koff,[2],0.000387 s⁻¹
same,kon,[2],501900 ± 2080 M⁻¹ s⁻¹
